Among the targets are RS3 (Homo sapiens) (UniProt P23396); hnRNPA1 (Homo sapiens) (UniProt P09651); hnRNPA2B1 (Homo sapiens) (UniProt P22626); RS4X (Homo sapiens) (UniProt P62701).
Experiment in all cases: pulldown
Details in all cases: mass spectrometry

For series [1], the target named is NUCL (nucleolin) (Homo sapiens) (UniProt P19338).
For series [2], the target named is HNRPC (hnRNP C) (Homo sapiens) (UniProt P07910).
In series [3] the target is HNRPU (hnRNP U) (Homo sapiens) (UniProt Q00839).
Sequence of HNRPU (hnRNP U) (Homo sapiens) (Q00839 2-825): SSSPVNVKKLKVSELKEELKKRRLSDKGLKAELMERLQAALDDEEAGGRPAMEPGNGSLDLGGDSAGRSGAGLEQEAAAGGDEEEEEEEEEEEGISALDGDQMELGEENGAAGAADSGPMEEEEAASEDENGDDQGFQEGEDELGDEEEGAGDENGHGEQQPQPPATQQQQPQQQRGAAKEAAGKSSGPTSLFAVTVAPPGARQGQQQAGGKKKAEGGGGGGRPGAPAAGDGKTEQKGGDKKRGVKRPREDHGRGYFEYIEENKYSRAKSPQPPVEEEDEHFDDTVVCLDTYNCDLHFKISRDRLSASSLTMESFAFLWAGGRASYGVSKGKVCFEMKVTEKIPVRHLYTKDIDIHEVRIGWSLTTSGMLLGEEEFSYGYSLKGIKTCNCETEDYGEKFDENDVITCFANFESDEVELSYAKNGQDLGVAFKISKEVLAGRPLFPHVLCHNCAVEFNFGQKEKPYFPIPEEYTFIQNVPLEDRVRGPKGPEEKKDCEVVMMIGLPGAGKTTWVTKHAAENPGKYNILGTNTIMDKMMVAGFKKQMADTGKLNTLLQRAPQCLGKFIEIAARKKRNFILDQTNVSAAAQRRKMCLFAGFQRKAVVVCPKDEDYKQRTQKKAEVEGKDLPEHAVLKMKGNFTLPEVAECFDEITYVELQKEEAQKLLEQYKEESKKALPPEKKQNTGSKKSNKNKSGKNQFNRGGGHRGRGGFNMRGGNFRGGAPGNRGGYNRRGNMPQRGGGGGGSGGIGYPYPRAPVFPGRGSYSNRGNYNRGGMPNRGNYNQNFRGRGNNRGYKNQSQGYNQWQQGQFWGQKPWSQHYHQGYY

Sequence of hnRNPA2B1 (Homo sapiens) (P22626 whole entry): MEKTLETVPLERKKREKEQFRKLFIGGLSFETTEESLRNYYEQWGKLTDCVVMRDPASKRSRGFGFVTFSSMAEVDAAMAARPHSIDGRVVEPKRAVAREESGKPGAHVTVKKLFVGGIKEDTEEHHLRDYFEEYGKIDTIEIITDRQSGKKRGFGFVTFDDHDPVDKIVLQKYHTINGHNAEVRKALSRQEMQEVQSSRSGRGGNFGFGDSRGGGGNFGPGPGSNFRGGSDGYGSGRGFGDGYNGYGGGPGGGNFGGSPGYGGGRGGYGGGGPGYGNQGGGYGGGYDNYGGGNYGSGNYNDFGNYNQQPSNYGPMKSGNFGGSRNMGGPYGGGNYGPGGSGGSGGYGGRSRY
Sequence of NUCL (nucleolin) (Homo sapiens) (P19338 2-710): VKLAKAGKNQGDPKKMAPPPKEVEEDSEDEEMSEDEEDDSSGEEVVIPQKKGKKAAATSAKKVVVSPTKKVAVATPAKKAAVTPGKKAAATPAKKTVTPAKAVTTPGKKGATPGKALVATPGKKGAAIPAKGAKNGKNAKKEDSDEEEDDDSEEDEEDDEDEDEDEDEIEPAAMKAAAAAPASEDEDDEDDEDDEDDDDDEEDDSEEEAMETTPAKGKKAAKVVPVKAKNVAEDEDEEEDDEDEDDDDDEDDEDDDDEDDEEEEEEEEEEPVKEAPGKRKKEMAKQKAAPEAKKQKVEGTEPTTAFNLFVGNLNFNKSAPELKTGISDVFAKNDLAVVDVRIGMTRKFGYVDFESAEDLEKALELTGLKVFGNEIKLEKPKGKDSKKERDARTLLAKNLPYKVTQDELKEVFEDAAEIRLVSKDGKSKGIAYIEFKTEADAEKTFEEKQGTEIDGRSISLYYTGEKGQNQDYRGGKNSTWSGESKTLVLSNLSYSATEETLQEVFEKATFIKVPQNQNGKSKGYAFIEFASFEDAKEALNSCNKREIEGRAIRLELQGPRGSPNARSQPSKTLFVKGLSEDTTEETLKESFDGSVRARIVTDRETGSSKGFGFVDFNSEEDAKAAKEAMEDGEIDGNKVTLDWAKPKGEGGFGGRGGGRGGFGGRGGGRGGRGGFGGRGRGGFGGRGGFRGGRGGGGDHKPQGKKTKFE
Sequence of hnRNPA1 (Homo sapiens) (P09651 2-372): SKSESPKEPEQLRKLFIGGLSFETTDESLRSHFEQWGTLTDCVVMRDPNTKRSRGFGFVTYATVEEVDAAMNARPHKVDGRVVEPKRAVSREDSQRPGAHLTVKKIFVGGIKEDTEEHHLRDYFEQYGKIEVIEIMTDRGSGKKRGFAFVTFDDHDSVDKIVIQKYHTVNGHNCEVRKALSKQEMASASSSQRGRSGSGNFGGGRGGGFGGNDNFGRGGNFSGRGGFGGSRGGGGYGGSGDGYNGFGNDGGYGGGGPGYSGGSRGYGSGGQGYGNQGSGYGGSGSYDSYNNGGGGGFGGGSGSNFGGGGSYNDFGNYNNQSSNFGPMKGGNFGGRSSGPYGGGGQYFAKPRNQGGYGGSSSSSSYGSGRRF
Sequence of HNRPC (hnRNP C) (Homo sapiens) (P07910 2-306): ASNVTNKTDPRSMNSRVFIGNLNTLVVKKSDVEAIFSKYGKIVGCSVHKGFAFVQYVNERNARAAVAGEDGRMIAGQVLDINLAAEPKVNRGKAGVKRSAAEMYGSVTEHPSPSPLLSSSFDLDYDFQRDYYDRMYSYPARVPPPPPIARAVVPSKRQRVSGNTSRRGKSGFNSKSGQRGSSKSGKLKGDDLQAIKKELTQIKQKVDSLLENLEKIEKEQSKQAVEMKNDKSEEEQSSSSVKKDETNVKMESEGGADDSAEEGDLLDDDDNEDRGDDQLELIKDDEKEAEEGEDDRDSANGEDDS

For the substance miR-198, the binding with RS3 (Homo sapiens) was found to be 3 peptides; in series [1], 9 peptides; in series [2], 1 peptides; in series [3] it was 3 peptides; in the series with hnRNPA1 (Homo sapiens), 2 peptides; with hnRNPA2B1 (Homo sapiens) (streptavidin bead pulldown), 4 peptides. The substance also displayed a binding with RS4X (Homo sapiens) of 3 peptides.

With poly-A, the binding is 0 peptides with RS3 (Homo sapiens); 8 peptides in series [1] (non-specific); 0 peptides in series [2]; 0 peptides in series [3]; 0 peptides with hnRNPA1 (Homo sapiens); 0 peptides in the series with hnRNPA2B1 (Homo sapiens). In the series with RS4X (Homo sapiens), the binding came out at 0 peptides.

(Values after patent US20160130577.)
